Laboratory results published in patent publication US6787341B2, “Pharmacological targeting of bacterial DNA ligase for treatment and prevention of bacterial infections” (priority 2001, dated 2004).

Legend:
E. coli LigA [1] = assay type: biochemical; details: for rate of ligase adenylation (kinetic pattern): 1 μM [32P-AMP]NAD+, 15-120 s; for ligase adenylation (ligase-AMP formation) with NAD+: qualitative
Method: (§1) FIG. 12A: Aliquots (5 μg) of wild-type (WT) E. coli ligase, N-terminal deletion mutants NΔ38 and NΔ78, and the full-length ligase proteins containing the indicated alanine mutations in domain Ia were analyzed by SDS-PAGE. A Coomassie blue-stained gel is shown. FIG. 12B: Ligase adenylation reaction mixtures (20 μl) containing 50 mM Tris-HCl (pH 7.5), 5 mM DTT, 5 mM MgCl2, 1 μM [α-^32P]NAD^+ and 8 pmol of WT ligase, NΔ38, NΔ78, or the indicated alanine mutants were incubated for 5 min at 37° C. The reaction products were resolved by SDS-PAGE and visualized by autoradiography. FIG. 12C: Nick joining reaction mixtures (20 μl) containing 50 mM Tris-HCl (pH 7.5), 10 mM (NH4)2SO4, 5 mM DTT, 5 mM MgCl2, 20 μM NAD^+, 1 pmol of ^32P-labeled nicked DNA, and increasing amounts of WT ligase or the indicated alanine mutants were incubated for 10 min at 22° C. The extents of ligation are plotted as a function of input protein.
FIG. 15A: Aliquots (5 μg) of wild-type (WT) E. coli ligase and proteins containing the indicated mutations in domain Ia were analyzed by SDS-PAGE. The Coomassie blue-stained gel is shown. The positions and sizes (in kDa) of marker proteins are indicated on the left. FIG. 15B: Ligase adenylation reaction mixtures (20 μl) containing 50 mM Tris-HCl (pH 7.5), 5 mM DTT, 5 mM MgCl2, 1 μM [α-^32P]NAD^+ and 8 pmol of WT ligase or the indicated mutants were incubated for 5 min at 37° C. The reaction products were resolved by SDS-PAGE and visualized by autoradiography.
Reaction mixtures containing (per 20 μl) 50 mM Tris-HCl (pH 7.5), 5 mM DTT, 5 mM MgCl2, 1 μM [^32P-AMP]NAD^+ and 8 pmol of ligase were incubated at 22° C. Aliquots (20 μl) were withdrawn at 15, 30, 60 and 120 s and then quenched immediately with SDS. The products were analyzed by SDS-PAGE. Formation of the ligase-[^32P]AMP adduct is plotted as a function of time.
The first step in DNA ligation involves formation of a covalent enzyme-adenylate intermediate.

E. coli LigA [2] = assay type: biochemical; details: specific activity by protein titration under steady-state conditions, normalized to wild-type ligase
Method: as §1
To further probe the role of domain Ia in NAD^+ recognition and nucleotidyl transfer, single alanine substitutions were introduced at six positions in the Ia domain of E. coli LigA. The six mutated Eco ligase residues—Glu10, Tyr22, His23, Asp32, Tyr35, and Asp36—correspond to the six residues that were subjected to alanine scanning mutagenesis in AmEPV ligase (FIG. 11). […] The conserved positions are denoted by shaded boxes in FIG. 11. The Eco ligase mutants E10A, Y22A, H23A, D32A, Y35A, and D36A were produced in E. coli and purified by Ni-agarose chromatography in parallel with wild-type ligase (FIG. 12A).
To evaluate the roles of charge, hydrogen bonding potential, and steric constraints in the functions of the domain Ia residues implicated in the step 1 reaction with NAD^+, the effects of conservative substitutions were tested. Tyr22 and Tyr35 were replaced by Phe and Ser, His23 was changed to Tyr, and Asp32 and Asp36 were mutated to Glu and Asn. The recombinant mutant ligases were purified from soluble bacterial extracts by Ni-agarose chromatography (FIG. 15A). The specific activity of each mutant was determined under steady-state conditions by protein titration and normalized to the specific activity of wild-type ligase.

| Molecule | rate of ligase adenylation (kinetic pattern) (E. coli LigA [1]) | ligase adenylation (ligase-AMP formation) with NAD+ (E. coli LigA [1]) | Nick Joining Activity (% of WT) (E. coli LigA [2]) |
| --- | --- | --- | --- |
| Y22F: E. coli LigA with Tyr22 replaced by Phe (protein, UniProt P15042 1-671, looked up, variant Y22F) DNA ligase: MESIEQQLTELRTTLRHHEYLFHVMDAPEIPDAEYDRLMRELRELETKHPELITPDSPTQRVGAAPLAAFSQIRHEVPMLSLDNVFDEESFLAFNKRVQDRLKNNEKVTWCCELKLDGLAVSILYENGVLVSAATRGDGTTGEDITSNVRTIRAIPLKLHGENIPARLEVRGEVFLPQAGFEKINEDARRTGGKVFANPRNAAAGSLRQLDPRITAKRPLTFFCYGVGVLEGGELPDTHLGRLLQFKKWGLPVSDRVTLCESAEEVLAFYHKVEEDRPTLGFDIDGVVIKVNSLAQQEQLGFVARAPRWAVAFKFPAQEQMTFVRDVEFQVGRTGAITPVARLEPVHVAGVLVSNATLHNADEIERLGLRIGDKVVIRRAGDVIPQVVNVVLSERPEDTREVVFPTHCPVCGSDVERVEGEAVARCTGGLICGAQRKESLKHFVSRRAMDVDGMGDKIIDQLVEKEYVHTPADLFKLTAGKLTGLERMGPKSAQNVVNALEKAKETTFARFLYALGIREVGEATAAGLAAYFGTLEALEAASIEELQKVPDVGIVVASHVHNFFAEESNRNVISELLAEGVHWPAPIVINAEEIDSPFAGKTVVLTGSLSQMSRDDAKARLVELGAKVAGSVSKKTDLVIAGEAAGSKLAKAQELGIEVIDEAEMLRLLGS | reacted slowly | weakly active | 9 % of WT |
| Y22S: E. coli LigA with Tyr22 replaced by Ser (protein, UniProt P15042 1-671, looked up, variant Y22S) DNA ligase: MESIEQQLTELRTTLRHHEYLSHVMDAPEIPDAEYDRLMRELRELETKHPELITPDSPTQRVGAAPLAAFSQIRHEVPMLSLDNVFDEESFLAFNKRVQDRLKNNEKVTWCCELKLDGLAVSILYENGVLVSAATRGDGTTGEDITSNVRTIRAIPLKLHGENIPARLEVRGEVFLPQAGFEKINEDARRTGGKVFANPRNAAAGSLRQLDPRITAKRPLTFFCYGVGVLEGGELPDTHLGRLLQFKKWGLPVSDRVTLCESAEEVLAFYHKVEEDRPTLGFDIDGVVIKVNSLAQQEQLGFVARAPRWAVAFKFPAQEQMTFVRDVEFQVGRTGAITPVARLEPVHVAGVLVSNATLHNADEIERLGLRIGDKVVIRRAGDVIPQVVNVVLSERPEDTREVVFPTHCPVCGSDVERVEGEAVARCTGGLICGAQRKESLKHFVSRRAMDVDGMGDKIIDQLVEKEYVHTPADLFKLTAGKLTGLERMGPKSAQNVVNALEKAKETTFARFLYALGIREVGEATAAGLAAYFGTLEALEAASIEELQKVPDVGIVVASHVHNFFAEESNRNVISELLAEGVHWPAPIVINAEEIDSPFAGKTVVLTGSLSQMSRDDAKARLVELGAKVAGSVSKKTDLVIAGEAAGSKLAKAQELGIEVIDEAEMLRLLGS | – | virtually inert | 0.2 % of WT |
| H23Y: E. coli LigA with His23 changed to Tyr (protein, UniProt P15042 1-671, looked up, variant H23Y) DNA ligase: MESIEQQLTELRTTLRHHEYLYYVMDAPEIPDAEYDRLMRELRELETKHPELITPDSPTQRVGAAPLAAFSQIRHEVPMLSLDNVFDEESFLAFNKRVQDRLKNNEKVTWCCELKLDGLAVSILYENGVLVSAATRGDGTTGEDITSNVRTIRAIPLKLHGENIPARLEVRGEVFLPQAGFEKINEDARRTGGKVFANPRNAAAGSLRQLDPRITAKRPLTFFCYGVGVLEGGELPDTHLGRLLQFKKWGLPVSDRVTLCESAEEVLAFYHKVEEDRPTLGFDIDGVVIKVNSLAQQEQLGFVARAPRWAVAFKFPAQEQMTFVRDVEFQVGRTGAITPVARLEPVHVAGVLVSNATLHNADEIERLGLRIGDKVVIRRAGDVIPQVVNVVLSERPEDTREVVFPTHCPVCGSDVERVEGEAVARCTGGLICGAQRKESLKHFVSRRAMDVDGMGDKIIDQLVEKEYVHTPADLFKLTAGKLTGLERMGPKSAQNVVNALEKAKETTFARFLYALGIREVGEATAAGLAAYFGTLEALEAASIEELQKVPDVGIVVASHVHNFFAEESNRNVISELLAEGVHWPAPIVINAEEIDSPFAGKTVVLTGSLSQMSRDDAKARLVELGAKVAGSVSKKTDLVIAGEAAGSKLAKAQELGIEVIDEAEMLRLLGS | – | restored the yield of ligase-AMP adduct to the wild-type level | 88 % of WT |
| Y35F: E. coli LigA with Tyr35 replaced by Phe (protein, UniProt P15042 1-671, looked up, variant Y35F) DNA ligase: MESIEQQLTELRTTLRHHEYLYHVMDAPEIPDAEFDRLMRELRELETKHPELITPDSPTQRVGAAPLAAFSQIRHEVPMLSLDNVFDEESFLAFNKRVQDRLKNNEKVTWCCELKLDGLAVSILYENGVLVSAATRGDGTTGEDITSNVRTIRAIPLKLHGENIPARLEVRGEVFLPQAGFEKINEDARRTGGKVFANPRNAAAGSLRQLDPRITAKRPLTFFCYGVGVLEGGELPDTHLGRLLQFKKWGLPVSDRVTLCESAEEVLAFYHKVEEDRPTLGFDIDGVVIKVNSLAQQEQLGFVARAPRWAVAFKFPAQEQMTFVRDVEFQVGRTGAITPVARLEPVHVAGVLVSNATLHNADEIERLGLRIGDKVVIRRAGDVIPQVVNVVLSERPEDTREVVFPTHCPVCGSDVERVEGEAVARCTGGLICGAQRKESLKHFVSRRAMDVDGMGDKIIDQLVEKEYVHTPADLFKLTAGKLTGLERMGPKSAQNVVNALEKAKETTFARFLYALGIREVGEATAAGLAAYFGTLEALEAASIEELQKVPDVGIVVASHVHNFFAEESNRNVISELLAEGVHWPAPIVINAEEIDSPFAGKTVVLTGSLSQMSRDDAKARLVELGAKVAGSVSKKTDLVIAGEAAGSKLAKAQELGIEVIDEAEMLRLLGS | faster than Y35A | restored adenylation activity | 23 % of WT |
| Y35S: E. coli LigA with Tyr35 replaced by Ser (protein, UniProt P15042 1-671, looked up, variant Y35S) DNA ligase: MESIEQQLTELRTTLRHHEYLYHVMDAPEIPDAESDRLMRELRELETKHPELITPDSPTQRVGAAPLAAFSQIRHEVPMLSLDNVFDEESFLAFNKRVQDRLKNNEKVTWCCELKLDGLAVSILYENGVLVSAATRGDGTTGEDITSNVRTIRAIPLKLHGENIPARLEVRGEVFLPQAGFEKINEDARRTGGKVFANPRNAAAGSLRQLDPRITAKRPLTFFCYGVGVLEGGELPDTHLGRLLQFKKWGLPVSDRVTLCESAEEVLAFYHKVEEDRPTLGFDIDGVVIKVNSLAQQEQLGFVARAPRWAVAFKFPAQEQMTFVRDVEFQVGRTGAITPVARLEPVHVAGVLVSNATLHNADEIERLGLRIGDKVVIRRAGDVIPQVVNVVLSERPEDTREVVFPTHCPVCGSDVERVEGEAVARCTGGLICGAQRKESLKHFVSRRAMDVDGMGDKIIDQLVEKEYVHTPADLFKLTAGKLTGLERMGPKSAQNVVNALEKAKETTFARFLYALGIREVGEATAAGLAAYFGTLEALEAASIEELQKVPDVGIVVASHVHNFFAEESNRNVISELLAEGVHWPAPIVINAEEIDSPFAGKTVVLTGSLSQMSRDDAKARLVELGAKVAGSVSKKTDLVIAGEAAGSKLAKAQELGIEVIDEAEMLRLLGS | – | apparently unreactive | <0.1 % of WT |
